# Assay results published in patent publication US20020193570A1.
# Tests used:
# [1] = target: IL-12 receptor on mouse effector cells (mouse) (UniProt Q60837); assay: cell-based or functional assay
# [2] = target: IL-12 receptor on human PBMC (human) (UniProt P42701); assay: cell-based or functional assay
# [3] = target: KS antigen recognized by the KS-1/4 antibody (plate-coated / as antigen) (UniProt P16422); assay: ELISA, plates coated with KS antigen, detection with anti-human IL-12 p40 antibody
# Chain of KS antigen recognized by the KS-1/4 antibody (plate-coated / as antigen) (P16422 24-265 limits assumed): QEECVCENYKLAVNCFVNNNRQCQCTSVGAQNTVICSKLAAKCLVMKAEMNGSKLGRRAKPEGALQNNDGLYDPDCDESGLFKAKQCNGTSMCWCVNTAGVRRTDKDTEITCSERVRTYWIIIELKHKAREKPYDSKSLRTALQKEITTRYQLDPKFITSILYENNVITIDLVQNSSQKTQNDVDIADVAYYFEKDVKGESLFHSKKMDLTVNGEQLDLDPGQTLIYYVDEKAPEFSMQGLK
# Chain of IL-12 receptor on mouse effector cells (mouse) (Q60837 20-738, chain 1 of 2): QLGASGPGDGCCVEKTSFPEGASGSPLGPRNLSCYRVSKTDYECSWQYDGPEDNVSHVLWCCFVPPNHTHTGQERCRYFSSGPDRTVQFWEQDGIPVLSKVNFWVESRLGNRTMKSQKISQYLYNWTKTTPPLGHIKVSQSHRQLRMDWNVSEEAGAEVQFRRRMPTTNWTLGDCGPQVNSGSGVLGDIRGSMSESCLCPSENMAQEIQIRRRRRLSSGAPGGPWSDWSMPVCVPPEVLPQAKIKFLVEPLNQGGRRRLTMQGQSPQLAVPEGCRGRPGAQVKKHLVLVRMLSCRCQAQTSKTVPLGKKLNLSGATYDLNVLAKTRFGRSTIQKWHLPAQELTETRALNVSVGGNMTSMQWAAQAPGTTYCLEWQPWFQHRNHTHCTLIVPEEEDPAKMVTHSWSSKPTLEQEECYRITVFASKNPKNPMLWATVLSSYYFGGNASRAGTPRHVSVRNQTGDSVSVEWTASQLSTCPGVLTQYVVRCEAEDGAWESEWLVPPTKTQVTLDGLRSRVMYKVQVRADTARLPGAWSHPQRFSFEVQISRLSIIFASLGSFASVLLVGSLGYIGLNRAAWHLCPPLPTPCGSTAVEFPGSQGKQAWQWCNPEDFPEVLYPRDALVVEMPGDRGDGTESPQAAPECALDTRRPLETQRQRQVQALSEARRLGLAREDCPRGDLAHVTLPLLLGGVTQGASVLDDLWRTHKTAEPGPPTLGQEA
# Chain of IL-12 receptor on mouse effector cells (mouse) (P97378 24-874, chain 2 of 2, further chain): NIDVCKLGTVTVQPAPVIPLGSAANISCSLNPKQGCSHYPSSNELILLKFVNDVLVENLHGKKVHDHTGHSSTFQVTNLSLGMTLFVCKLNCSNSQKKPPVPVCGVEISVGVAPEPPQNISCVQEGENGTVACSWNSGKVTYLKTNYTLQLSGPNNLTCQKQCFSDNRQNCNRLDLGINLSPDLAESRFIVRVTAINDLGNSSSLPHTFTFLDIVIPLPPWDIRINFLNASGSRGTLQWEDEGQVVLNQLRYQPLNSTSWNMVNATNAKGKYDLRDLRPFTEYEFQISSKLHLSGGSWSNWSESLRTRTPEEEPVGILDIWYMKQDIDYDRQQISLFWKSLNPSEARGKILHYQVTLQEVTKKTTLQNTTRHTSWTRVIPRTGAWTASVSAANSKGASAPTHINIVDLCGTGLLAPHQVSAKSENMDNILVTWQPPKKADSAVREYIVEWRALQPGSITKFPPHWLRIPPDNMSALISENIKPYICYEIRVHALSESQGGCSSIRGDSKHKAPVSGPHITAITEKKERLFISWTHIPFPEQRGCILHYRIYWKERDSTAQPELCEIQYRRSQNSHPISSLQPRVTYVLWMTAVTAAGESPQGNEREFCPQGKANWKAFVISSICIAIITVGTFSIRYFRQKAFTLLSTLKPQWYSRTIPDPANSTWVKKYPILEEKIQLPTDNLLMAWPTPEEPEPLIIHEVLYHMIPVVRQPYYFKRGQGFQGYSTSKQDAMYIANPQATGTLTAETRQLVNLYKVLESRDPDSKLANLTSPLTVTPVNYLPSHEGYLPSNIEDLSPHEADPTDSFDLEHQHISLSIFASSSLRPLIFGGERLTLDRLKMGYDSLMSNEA
# Chain of IL-12 receptor on human PBMC (human) (Q99665 24-862, chain 2 of 2, other chains not shown): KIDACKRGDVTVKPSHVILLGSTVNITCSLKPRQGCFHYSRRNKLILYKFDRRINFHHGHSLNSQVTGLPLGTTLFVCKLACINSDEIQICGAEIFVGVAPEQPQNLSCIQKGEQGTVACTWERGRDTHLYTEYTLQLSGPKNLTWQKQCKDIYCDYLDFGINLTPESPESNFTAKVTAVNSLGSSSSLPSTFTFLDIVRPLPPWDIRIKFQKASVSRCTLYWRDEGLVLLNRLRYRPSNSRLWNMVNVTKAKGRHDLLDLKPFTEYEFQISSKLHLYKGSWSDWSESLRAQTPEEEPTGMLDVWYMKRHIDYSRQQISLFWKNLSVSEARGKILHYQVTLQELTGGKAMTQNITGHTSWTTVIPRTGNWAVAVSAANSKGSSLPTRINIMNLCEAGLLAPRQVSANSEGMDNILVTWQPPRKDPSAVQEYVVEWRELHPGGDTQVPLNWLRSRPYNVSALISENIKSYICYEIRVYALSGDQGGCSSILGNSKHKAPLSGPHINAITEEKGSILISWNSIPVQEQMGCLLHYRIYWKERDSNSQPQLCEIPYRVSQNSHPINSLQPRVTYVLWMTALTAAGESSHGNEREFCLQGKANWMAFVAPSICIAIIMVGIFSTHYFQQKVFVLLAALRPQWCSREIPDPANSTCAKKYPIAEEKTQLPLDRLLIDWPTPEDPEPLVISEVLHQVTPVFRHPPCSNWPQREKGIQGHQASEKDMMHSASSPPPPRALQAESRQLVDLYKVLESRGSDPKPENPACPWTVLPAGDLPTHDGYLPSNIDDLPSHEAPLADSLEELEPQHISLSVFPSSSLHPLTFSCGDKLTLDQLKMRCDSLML
substance,measurement,setting,value
Hu-KS-1/4-mouse p35 human p40 fusion protein (from UniProt P01857 1-330; P43431 23-215; P29460 23-328) (antibody),induction of IFN-γ secretion from mouse effector cells pre-stimulated with Concanavalin A,[1]; scale: fold less active than the mouse IL-12 standard,50
same,induction of IFN-γ secretion from PHA-activated PBMC,[2]; scale: fold less active than Hu-KS-IL-12 with human IL-12 chains,4
Hu-KS-IL-12 fusion protein with both human IL-12 chains (from UniProt P01857 1-330; P29459 23-219; P29460 23-328) (antibody),induction of IFN-γ secretion from PHA-activated PBMC (fold less active than the IL-12 standard),[2],6
single-chain fusion protein with a mouse p35 subunit and a human p40 subunit (KS-1/4 scFv-mouse p35/human p40) (from UniProt P43431 23-215; P29460 23-328),induction of IFN-γ secretion from mouse cells (fold less than the mouse IL-12 control),[1],50
same,intensity of binding against the whole KS-1/4 antibody (fold lower than whole KS-1/4 antibody),[3],3
single-chain fusion protein with human p35 and p40 subunits (KS-1/4 scFv-human IL-12) (from UniProt P29459 23-219; P29460 23-328),intensity of binding against the whole KS-1/4 antibody (fold lower than whole KS-1/4 antibody),[3],3
